# Results taken from US20110144312A1 (Kyowa Kirin, published 2011).
# T1: human IL-10Rα on cells (human, UniProt Q13651 22-578)
# T1 construct: Full-length entry with signal peptide; endogenous on PBMC and RPMI-8226 cells, transfected in EL-4 and CHO-K1 cells; also called IL-10R on RPMI-8226 cells; IL-10Rα on human PBMC, lymphocytes and monocytes
# T1 sequence: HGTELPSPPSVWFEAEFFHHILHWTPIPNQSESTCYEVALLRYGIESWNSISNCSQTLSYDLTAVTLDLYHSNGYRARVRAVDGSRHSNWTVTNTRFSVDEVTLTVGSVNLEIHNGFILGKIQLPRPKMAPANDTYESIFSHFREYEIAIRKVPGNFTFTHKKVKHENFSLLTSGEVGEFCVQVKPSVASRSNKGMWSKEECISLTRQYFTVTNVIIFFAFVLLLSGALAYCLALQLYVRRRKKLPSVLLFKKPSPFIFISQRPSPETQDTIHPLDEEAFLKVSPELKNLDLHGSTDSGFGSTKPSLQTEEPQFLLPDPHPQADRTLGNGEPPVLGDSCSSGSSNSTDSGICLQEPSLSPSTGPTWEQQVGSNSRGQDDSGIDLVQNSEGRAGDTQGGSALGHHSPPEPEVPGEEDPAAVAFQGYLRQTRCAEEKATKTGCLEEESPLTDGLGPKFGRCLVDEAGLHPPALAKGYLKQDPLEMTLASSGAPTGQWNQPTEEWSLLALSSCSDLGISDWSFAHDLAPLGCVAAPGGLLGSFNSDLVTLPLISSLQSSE
# Experiments:
# [1] = target: T1, human IL-10Rα on cells; assay: flow cytometry on RPMI-8226 cells; detection anti-human IgG-PE [B]
# Description: (§1) A) Titration of anti-IL-10Rα antibodies binding to coated human IL-10Rα:hFc. Binding was detected with anti-human kappa-HRP, anti-mouse IgG-HRP, or anti-rat IgG-HRP. […] RPMI-8226 cells were labeled with anti-human IL-10Rα antibodies at various concentrations and detected with anti-human IgG-PE. The commercial rat anti-human IL-10Rα antibody 3F9 was detected with anti-rat IgG-PE. The geometric mean fluorescence intensity (geo mean) data are shown.
# The cells were washed once in staining buffer: PBS+2% FBS+0.01% NaN₃+10 mM EDTA, then blocked with 20 μg/ml rabbit IgG (Jackson Immunoresearch), resuspended in serum, supernatant, purified anti-human IL-10Rα antibodies, or isotype control antibodies in a final volume of 50 μl. The cells were incubated with the antibodies on ice for 20 minutes, washed twice in staining buffer then resuspended in an anti-human IgG secondary antibody for 20 minutes. […] If the biotinylated antibody was used, antibody binding was detected by labeling with streptavidin-phycoerythrin (SA-PE) for 20 minutes. Binding of rat and mouse anti-hIL-10Rα antibodies were detected with either biotinylated or PE conjugated anti-rat or anti-mouse IgG antibodies from multiple sources (Jackson Immunoresearch; Southern Biotech Associates; and BD Pharmingen, San Diego, Calif.). […]
# [2] = target: T2, human IL-10Rα extracellular domain fused to the Fc portion of human IgG1 (human); assay: ELISA, coated human IL-10Rα:hFc
# T2 construct: also called hIL-10Rα:hFc; human IL-10Rα:hFc
# Description: as §1, with “FIGS. 2A-2B show relative binding affinity of anti-human IL-10R antibodies for human IL-10Rα. A)” for “A)”
# IL-10Rα Specific Antibody Detection ELISA: Antibody titers, specificity, and production by hybridomas were determined by ELISA. In brief, 96 well flat bottom Maxisorb plates were coated with 50 μl of hIL-10Rα (R&D Systems, Minneapolis, Minn.) at 1 μg/ml in carbonate buffer (pH 9.4) overnight at 4° C. or at 37° C. for 1 hour. After washing three times with PBS/0.05% Tween 20, plates were blocked with Superblock blocking buffer in TBS (Pierce) at room temperature for 30 minutes. […] The reaction was stopped with H₂SO₄ (LabChem) and the optical density was measured at 450 nm by a microplate reader. […] In this assay, binding of specific human IgG were detected with a peroxidase labeled sheep anti-human kappa antibody (The Binding Site, Birmingham, UK).
Binder,EC50 (read off the curve) [1] [µg/mL],fold higher relative binding affinity than 37607 [2] [fold]
"136C5 (antibody, V domains shown, Hybridoma antibody, human IgG1, kappa light chain; also called human anti-human IL-10Rα monoclonal antibody 136C5; hybridoma deposit PTA-9131) VH: EVQLVESGGGLVQPGGSLRLSCAASGFTFSSYSMNWVRQAPGKGLEWVSYISTGSSTIYYADSVKGRFTISRDNAKNSLYLQMNSLRDEDTAVYYCARENYYGSGSYEDYFDYWGQGTLVTVSS VL: EIVLTQSPATLSLSPGERATLSCRASQSVSSYLAWYQQKPGQAPRLLIYDASNRATGIPARFSGSGSGTDFTLTISSLEPEDFAVYYCQQRSNWPIFTFGPGTKVDIK",~0.5,~3
"136C8 (antibody, V domains shown, Hybridoma antibody, human IgG2, kappa light chain; also called human anti-human IL-10Rα monoclonal antibody 136C8; hybridoma deposit PTA-9132) VH: EVQLVESGGGLVQPGGSLRLSCAASGFTFSSYSMNWVRQAPGKGLEWVSYISTRSSTIYYADSVKGRFTISRDNAKNSLYLQMNSLRDEDTAVYYCARENYYGSGSYEDYFDYWGQGTLVTVSS VL: EIVLTQSPATLSLSPGERATLSCRASQSVSSYLAWYQQKPGQAPRLLIYDASNRATGIPARFSGSGSGTDFTLTISSLEPEDFAVYYCQQRSNWPIFTFGPGTKVDIK",~0.5,~3
